How the values were obtained:
Test in all cases: Kinase Profiling Assay
Type in all cases: biochemical
Conditions in all cases: 100 μM peptide
ACK1(h) = ACK1(h) (Homo sapiens, UniProt Q07912)
Method in brief: (§1)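 Selectivity profiling: MK2-targeting peptides tested on 266 human kinases. All activity determinations done in duplicate.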

AMPKα1(h) = AMPKα1(h) (Homo sapiens, UniProt Q13131)
Method in brief: as §1

Axl(h) = Axl(h) (Homo sapiens, UniProt P30530)
Method in brief: as §1

BRK(h) = BRK(h) (Homo sapiens, UniProt Q13882)
Method in brief: as §1

EGFR(L858R)(h) = EGFR(L858R)(h) (Homo sapiens, UniProt P00533, L858R)
Method in brief: as §1

EphA8(h) = target: T1, EphA8(h) (Homo sapiens, UniProt P29322)
T1 sequence (P29322 28-1005): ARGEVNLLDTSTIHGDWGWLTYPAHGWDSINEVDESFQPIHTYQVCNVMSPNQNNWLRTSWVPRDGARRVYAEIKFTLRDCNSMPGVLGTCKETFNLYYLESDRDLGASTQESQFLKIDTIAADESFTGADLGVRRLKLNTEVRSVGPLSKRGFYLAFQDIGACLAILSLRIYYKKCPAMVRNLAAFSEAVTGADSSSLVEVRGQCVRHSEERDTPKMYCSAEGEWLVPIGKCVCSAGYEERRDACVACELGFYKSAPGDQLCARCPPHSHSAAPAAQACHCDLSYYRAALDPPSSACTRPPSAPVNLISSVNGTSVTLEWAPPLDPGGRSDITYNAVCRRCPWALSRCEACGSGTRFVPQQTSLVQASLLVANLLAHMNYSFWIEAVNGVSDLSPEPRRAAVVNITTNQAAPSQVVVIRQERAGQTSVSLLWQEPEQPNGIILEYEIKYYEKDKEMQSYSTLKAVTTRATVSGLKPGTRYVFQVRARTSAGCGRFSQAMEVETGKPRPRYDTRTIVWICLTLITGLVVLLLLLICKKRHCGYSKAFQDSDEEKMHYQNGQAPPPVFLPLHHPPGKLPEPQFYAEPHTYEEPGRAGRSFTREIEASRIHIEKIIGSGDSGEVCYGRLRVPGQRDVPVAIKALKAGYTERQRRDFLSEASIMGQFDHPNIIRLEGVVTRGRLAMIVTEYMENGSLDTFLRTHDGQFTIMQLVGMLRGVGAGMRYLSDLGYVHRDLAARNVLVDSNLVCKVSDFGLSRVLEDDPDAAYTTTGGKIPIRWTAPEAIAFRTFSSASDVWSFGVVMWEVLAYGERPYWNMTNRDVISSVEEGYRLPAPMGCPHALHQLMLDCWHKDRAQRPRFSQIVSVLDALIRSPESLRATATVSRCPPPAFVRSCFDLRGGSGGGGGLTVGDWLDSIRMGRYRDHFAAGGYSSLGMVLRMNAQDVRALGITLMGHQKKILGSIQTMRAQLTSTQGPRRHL
Method in brief: as §1

Fes(h) = Fes(h) (Homo sapiens, UniProt P07332)
Method in brief: as §1

Haspin(h) = target: T2, Haspin(h) (Homo sapiens, UniProt Q8TF76)
T2 construct: purchased Millipore
T2 sequence (Q8TF76 1-798): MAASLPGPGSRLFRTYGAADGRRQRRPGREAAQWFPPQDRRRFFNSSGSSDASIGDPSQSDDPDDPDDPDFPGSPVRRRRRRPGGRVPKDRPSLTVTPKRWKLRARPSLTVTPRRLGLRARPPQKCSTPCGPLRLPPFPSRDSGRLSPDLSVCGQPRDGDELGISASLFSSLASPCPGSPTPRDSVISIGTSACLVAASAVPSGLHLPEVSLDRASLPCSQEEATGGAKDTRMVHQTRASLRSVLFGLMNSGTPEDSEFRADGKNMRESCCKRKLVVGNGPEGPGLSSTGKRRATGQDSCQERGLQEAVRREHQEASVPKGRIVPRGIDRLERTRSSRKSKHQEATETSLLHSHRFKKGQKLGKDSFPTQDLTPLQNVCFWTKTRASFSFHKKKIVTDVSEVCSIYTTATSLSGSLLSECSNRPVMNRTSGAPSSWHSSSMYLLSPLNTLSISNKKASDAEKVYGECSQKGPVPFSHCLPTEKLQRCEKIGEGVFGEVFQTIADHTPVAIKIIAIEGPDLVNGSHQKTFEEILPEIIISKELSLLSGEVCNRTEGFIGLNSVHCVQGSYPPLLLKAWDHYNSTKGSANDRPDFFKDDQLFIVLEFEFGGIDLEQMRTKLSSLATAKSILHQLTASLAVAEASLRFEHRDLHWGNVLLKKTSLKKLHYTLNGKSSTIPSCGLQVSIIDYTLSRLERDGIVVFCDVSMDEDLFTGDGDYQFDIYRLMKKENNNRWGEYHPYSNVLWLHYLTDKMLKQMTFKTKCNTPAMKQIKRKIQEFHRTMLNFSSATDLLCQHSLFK
Method in brief: as §1

IRR(h) = target: T3, IRR(h) (Homo sapiens, UniProt P14616)
T3 construct: purchased Millipore
Method in brief: as §1

MAPK2(h) = MAPK2(h) (Homo sapiens, UniProt P28482)
Method in brief: as §1

MRCKβ(h) = MRCKβ(h) (Homo sapiens, UniProt Q9Y5S2)
Method in brief: as §1

PhKγ2(h) = target: T4, PhKγ2(h) (Homo sapiens, UniProt P15735)
T4 sequence (P15735 1-406): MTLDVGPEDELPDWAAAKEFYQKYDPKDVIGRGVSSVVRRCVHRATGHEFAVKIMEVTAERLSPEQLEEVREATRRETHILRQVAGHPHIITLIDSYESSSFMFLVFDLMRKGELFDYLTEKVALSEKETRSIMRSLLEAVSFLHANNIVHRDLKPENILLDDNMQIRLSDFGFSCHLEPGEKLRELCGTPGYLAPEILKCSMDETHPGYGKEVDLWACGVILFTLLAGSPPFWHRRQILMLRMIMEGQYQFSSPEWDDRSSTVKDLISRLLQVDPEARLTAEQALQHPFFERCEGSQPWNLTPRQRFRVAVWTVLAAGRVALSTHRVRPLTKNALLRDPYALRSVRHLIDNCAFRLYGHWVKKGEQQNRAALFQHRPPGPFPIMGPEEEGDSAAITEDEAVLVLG
Method in brief: as §1

eEF-2K(h) = eEF-2K(h) (Homo sapiens, UniProt O00418)
Method in brief: as §1

AMPKα1(h), sequence (Q13131 whole entry): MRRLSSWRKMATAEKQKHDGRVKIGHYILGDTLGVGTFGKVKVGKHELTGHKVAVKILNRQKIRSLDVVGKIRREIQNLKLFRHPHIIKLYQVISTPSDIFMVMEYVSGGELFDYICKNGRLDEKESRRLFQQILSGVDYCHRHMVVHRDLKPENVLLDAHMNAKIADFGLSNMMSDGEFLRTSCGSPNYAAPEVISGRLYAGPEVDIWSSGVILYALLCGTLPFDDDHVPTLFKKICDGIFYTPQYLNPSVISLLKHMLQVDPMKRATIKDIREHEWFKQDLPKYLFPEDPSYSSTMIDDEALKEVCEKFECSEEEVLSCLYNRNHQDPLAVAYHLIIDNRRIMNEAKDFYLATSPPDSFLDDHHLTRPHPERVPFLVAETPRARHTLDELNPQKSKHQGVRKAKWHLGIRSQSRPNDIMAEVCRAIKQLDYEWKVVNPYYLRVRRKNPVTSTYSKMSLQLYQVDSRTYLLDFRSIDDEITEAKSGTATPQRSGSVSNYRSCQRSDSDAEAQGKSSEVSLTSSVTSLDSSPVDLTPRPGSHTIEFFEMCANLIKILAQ
AMPKα1(h), sequence (Q9Y478 whole entry partner): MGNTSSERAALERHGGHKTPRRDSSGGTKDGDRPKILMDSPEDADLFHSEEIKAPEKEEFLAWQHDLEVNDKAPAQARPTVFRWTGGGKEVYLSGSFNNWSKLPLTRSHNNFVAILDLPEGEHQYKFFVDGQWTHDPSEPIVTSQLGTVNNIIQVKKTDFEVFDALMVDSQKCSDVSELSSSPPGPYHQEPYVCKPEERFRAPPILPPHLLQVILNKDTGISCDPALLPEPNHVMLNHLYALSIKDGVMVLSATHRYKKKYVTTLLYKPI
AMPKα1(h), sequence (P54619 whole entry partner): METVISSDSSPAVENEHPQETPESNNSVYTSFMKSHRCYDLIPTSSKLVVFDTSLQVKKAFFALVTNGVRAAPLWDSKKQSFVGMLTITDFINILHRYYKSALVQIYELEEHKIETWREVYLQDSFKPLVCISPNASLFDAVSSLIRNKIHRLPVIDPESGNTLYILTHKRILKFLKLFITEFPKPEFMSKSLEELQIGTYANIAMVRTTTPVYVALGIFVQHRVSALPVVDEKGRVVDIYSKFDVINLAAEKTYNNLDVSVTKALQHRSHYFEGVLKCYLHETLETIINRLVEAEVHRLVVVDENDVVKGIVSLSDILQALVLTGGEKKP
ACK1(h), sequence (Q07912 whole entry): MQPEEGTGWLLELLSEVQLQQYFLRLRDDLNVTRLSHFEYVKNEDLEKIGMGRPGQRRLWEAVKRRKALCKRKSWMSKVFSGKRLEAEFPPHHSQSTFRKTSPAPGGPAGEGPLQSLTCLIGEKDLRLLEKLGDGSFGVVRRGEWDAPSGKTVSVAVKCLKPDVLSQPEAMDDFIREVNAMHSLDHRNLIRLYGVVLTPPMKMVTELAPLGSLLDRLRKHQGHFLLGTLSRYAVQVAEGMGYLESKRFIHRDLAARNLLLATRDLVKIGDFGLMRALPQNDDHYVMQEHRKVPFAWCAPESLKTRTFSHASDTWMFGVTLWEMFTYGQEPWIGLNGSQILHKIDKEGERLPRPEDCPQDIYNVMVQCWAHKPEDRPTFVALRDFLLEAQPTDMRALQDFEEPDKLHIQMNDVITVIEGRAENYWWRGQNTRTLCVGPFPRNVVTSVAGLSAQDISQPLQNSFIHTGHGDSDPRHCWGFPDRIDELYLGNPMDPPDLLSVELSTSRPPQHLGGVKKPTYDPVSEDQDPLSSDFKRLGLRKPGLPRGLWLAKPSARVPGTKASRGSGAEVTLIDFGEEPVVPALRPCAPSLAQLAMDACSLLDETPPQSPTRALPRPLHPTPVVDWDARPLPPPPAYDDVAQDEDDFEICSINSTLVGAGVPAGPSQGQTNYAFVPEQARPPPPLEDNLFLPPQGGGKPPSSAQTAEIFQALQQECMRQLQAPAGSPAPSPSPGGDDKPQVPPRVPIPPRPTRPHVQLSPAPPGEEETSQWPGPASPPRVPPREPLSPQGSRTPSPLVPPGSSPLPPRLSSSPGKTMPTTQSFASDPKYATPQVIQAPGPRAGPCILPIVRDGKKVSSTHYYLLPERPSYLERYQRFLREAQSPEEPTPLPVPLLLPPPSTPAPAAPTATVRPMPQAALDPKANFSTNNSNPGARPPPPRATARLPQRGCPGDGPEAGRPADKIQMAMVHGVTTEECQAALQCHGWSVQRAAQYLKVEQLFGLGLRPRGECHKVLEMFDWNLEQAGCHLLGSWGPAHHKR
MAPK2(h), sequence (P28482 whole entry): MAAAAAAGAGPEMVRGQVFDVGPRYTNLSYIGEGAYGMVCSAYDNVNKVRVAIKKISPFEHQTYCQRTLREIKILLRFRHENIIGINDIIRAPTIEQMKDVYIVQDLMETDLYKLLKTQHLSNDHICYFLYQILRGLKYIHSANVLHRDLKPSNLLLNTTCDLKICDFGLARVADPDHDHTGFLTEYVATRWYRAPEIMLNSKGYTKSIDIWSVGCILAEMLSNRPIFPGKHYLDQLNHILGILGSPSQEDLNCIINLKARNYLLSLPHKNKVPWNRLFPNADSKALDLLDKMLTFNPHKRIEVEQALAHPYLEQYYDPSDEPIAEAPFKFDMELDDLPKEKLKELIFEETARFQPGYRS
BRK(h), sequence (Q13882 whole entry): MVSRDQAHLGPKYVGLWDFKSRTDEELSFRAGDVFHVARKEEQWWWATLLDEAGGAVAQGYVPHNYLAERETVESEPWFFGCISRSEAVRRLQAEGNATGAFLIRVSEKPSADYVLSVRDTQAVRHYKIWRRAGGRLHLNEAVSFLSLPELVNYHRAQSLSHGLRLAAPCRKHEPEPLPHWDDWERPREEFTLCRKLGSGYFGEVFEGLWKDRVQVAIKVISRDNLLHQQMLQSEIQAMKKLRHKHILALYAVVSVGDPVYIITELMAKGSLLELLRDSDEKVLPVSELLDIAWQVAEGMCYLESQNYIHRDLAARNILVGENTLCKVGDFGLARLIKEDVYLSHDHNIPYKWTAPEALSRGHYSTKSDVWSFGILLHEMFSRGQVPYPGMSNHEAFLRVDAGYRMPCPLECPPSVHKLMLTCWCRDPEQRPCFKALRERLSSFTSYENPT
MRCKβ(h), sequence (Q9Y5S2 whole entry): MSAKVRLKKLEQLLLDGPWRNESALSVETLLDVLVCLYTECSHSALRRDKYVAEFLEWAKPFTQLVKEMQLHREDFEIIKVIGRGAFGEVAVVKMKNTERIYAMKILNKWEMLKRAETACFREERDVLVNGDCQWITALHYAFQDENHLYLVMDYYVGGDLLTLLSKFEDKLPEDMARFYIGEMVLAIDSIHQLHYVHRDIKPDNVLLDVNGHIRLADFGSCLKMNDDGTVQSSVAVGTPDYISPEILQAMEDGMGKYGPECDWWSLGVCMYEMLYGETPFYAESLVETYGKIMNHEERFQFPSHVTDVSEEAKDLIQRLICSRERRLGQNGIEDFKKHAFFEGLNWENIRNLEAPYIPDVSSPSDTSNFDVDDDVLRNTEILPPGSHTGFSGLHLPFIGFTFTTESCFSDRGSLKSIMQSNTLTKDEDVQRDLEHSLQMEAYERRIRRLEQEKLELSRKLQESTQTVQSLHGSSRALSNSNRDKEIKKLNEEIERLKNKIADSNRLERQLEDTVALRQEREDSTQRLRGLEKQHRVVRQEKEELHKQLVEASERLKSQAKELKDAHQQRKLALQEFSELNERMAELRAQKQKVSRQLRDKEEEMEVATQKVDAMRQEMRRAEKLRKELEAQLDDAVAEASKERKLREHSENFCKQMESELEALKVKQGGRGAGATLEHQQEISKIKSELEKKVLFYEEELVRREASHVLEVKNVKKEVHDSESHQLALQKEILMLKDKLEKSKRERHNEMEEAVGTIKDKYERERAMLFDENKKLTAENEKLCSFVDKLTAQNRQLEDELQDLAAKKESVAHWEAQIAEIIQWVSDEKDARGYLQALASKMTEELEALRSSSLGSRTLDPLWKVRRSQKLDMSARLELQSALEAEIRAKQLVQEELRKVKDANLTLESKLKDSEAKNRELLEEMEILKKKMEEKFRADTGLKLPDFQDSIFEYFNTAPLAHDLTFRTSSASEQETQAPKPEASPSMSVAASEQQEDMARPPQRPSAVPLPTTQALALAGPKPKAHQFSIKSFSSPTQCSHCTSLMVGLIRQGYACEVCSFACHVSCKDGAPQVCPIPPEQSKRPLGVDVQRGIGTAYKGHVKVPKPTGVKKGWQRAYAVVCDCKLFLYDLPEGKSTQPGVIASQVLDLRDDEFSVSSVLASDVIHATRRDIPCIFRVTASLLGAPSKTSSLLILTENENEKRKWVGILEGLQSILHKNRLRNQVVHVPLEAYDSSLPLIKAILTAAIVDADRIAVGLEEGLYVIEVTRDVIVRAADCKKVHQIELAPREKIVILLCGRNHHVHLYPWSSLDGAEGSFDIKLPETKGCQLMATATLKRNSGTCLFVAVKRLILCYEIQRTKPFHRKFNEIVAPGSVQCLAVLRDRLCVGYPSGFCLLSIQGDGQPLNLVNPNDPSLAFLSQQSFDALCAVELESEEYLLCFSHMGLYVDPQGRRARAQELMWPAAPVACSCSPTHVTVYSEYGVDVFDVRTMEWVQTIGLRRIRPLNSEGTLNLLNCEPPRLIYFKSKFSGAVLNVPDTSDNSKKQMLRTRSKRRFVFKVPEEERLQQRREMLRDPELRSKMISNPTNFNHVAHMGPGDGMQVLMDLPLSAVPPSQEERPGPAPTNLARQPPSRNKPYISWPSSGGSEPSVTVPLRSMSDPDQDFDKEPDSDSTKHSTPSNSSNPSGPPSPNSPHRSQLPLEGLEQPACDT

Sequence | ACK1(h) % activity (ACK1(h)) [%] | AMPKα1(h) % activity (AMPKα1(h)) [%] | Axl(h) % activity (Axl(h)) [%] | BRK(h) % activity (BRK(h)) [%] | EGFR(L858R)(h) % activity (EGFR(L858R)(h)) [%] | EphA8(h) % activity (EphA8(h)) [%] | Fes(h) % activity (Fes(h)) [%] | Haspin(h) % activity (Haspin(h)) [%] | IRR(h) % activity (IRR(h)) [%] | MAPK2(h) % activity (MAPK2(h)) [%] | MRCKβ(h) % activity (MRCKβ(h)) [%] | PhKγ2(h) % activity (PhKγ2(h)) [%] | eEF-2K(h) % activity (eEF-2K(h)) [%]
HRRIKAWLKKIKALARQLGVAA (Mammalian) [MMI-0500] | 64 | 35 | 12 | 41 | 26 | 337 | 23 | 25 | 10 | 60 | −10 | 16 | 43
KAFAKLAARLYRKALARQLGVAA [MMI-0400] | 95 | 87 | 41 | 18 | 52 | 146 | 16 | 36 | 8 | 93 | 71 | 38 | 43
FAKLAARLYRKALARQLGVAA [MMI-0300] |  | 71 | 52 | 35 |  | 93 | 20 | 48 | 8 | 98 | 83 | 46 | 91
YARAAARQARAKALNRQLGVA (Mammalian) [MMI-0200] | 97 | 108 | 99 | 127 | 120 | 133 | 74 | 71 | 69 |  |  | 86 | 

Reference: patent US10562947B2, “Compositions and methods for preventing or treating diseases, conditions or processes characterized by aberrant fibroblast proliferation and extracellular matrix deposition” (MOERAE MATRIX, INC., priority 2011, dated 2020)
